Kd data for one molecule are collected here from article PMC6363164.

The target of the assay is Rab7-RILP complex (human) (UniProt P51149). Put plainly: ITC; 20 °C; 20 mM Tris-HCl pH 7.5, 150 mM NaCl; 1 mM ORP1 ANK in the syringe, 0.1 mM Rab7 or Rab7-RILP in the cell; Rab7 Q67L with 0.5 mM GTP, Rab7 T22N with 0.5 mM GDP; independent binding model.

B1: human ORP1 ANK domain (residue 5-152) (domain or fragment)
chain: AEQQLLHHARNGNAEEVRQLLETMARNEVIADINCKGRSKSNLGWTPLHLACYFGHRQVVQDLLKAGAEVNVLNDMGDTPLHRAAFTGRKELVMLLLEYNADTTIVNGSGQTAKEVTHAEEIRSMLEAVERTQQRKLEELLLAAAREG
Broadly, the Kd is the concentration at which binding is half-saturated. B1 displayed a Kd of 5 µM.
